Experiments:
[1] = target: T1, recombinant human VEGF165 (human, UniProt P15692 207-395); test: cell-based or functional assay
[2] = target: T2, recombinant human PDGF-BB (human, UniProt P01127 82-190); test: cell-based or functional assay
[3] = target: T2, recombinant human PDGF-BB; test: competition ELISA: blocks hPDGF-BB-biotin binding to coated hPDGF-Rβ-Fc
Experimental: (§1) Plates were then washed four times with wash buffer (TBS, 0.05% Tween-20) and blocked with Superblock blocking buffer (Thermo Scientific, cat#37535). During the blocking step, supernatants, antibodies, benchmark compounds or DVD-Ig were diluted in assay diluent (10% Superblock containing 0.05% surfactamps) and an eight point titration of each sample molecule was performed. […] Following incubation, plates were washed four times with wash buffer. Detection reagent Streptavidin-polyHRP-40 (Fitzgerald, cat#65r-s104phrp) was diluted in assay diluent and added to plates (50 μL) for 45 minutes at 25° C. with shaking. Plates were washed four times with wash buffer and developed with the addition of Enhanced K-blue TMB substrate (Neogen, cat#308177). The reaction was stopped with 2N sulfuric acid (VWR, cat# BDH3500-1) and the absorbance was read at 450 nm-570 nm. […] Data was analyzed using Softmax Pro 4.8 software and IC₅₀ values calculated using a sigmoidal dose response (variable slope) fit in GraphPad Prism 5.

[4] = target: T1, recombinant human VEGF165; test: competition ELISA: blocks biotinylated hVEGF165 binding to coated hVEGF-R2-Fc
Experimental: To identify molecules that could block the binding of hVEGF₁₆₅ to the hVEGF-R2 (KDR/Flk-1) receptor, a competition ELISA was performed. […] Plates were then washed four times with wash buffer (TBS, 0.05% Tween-20) and blocked with Superblock blocking buffer (Thermo Scientific, cat#37535). […] The pre-incubated sample/hVEGF₁₆₅ complex was added to the coated plate at 50 μL in duplicate and incubated for 30 minutes at 25° C. with shaking. Following incubation, plates were washed four times with wash buffer. Streptavidin-polyHRP-40 (Fitzgerald cal#65r-s104phrp) was diluted in assay diluent (10% Superblock containing 0.05% surfactamps) and added to plates (50 μL) for 45 minutes at 25° C. with shaking. Plates were washed four times with wash buffer and developed with the addition of Enhanced K-blue TMB substrate (Neogen cat#308177). The reaction was stopped with 2N sulfuric acid (VWR, cat# BDH3500-1) and the absorbance was read at 450 nm-570 nm. A decrease in observed optical density indicates the test molecule is blocking the hVEGF₁₆₅ binding to the hVEGF-R2-Fc. Data was analyzed using Softmax Pro 4.8 software and IC₅₀ values calculated using a sigmoidal dose response (variable slope) fit in GraphPad Prism 5.

[5] = target: T3, recombinant human PDGF-BB (human, UniProt P01127 82-190, biotin-labelled in the binding and competition ELISAs (sites not given)); test: cell-based or functional assay
[6] = target: T3, recombinant human PDGF-BB; test: receptor competition ELISA: antibody pre-incubated with biotin-hPDGF-BB, binding to coated hPDGF-Rβ-Fc
Experimental: as §1

T1 sequence (P15692 other isoform, or with tags, fused parts or gaps limits assumed): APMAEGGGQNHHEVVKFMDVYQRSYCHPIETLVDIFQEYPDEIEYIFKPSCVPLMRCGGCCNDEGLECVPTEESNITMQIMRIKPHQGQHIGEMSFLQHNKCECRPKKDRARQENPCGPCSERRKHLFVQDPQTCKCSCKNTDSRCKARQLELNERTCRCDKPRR
T2 sequence (P01127 82-190 limits assumed): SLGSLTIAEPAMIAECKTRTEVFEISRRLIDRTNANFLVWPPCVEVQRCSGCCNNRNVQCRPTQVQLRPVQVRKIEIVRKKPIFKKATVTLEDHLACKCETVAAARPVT
T3 sequence (P01127 82-190 limits assumed): as above

| Binder | Potency IC50 (nM) HMVEC-d hVEGF165 [1] | Potency IC50 (nM) NIH-3T3 hPDGF-BB [2] | IC50 [3] | IC50 [4] | huPDGF-BB Neutralization Potency (nM) in NIH-3T3 Cells [5] | IC50 [6] |
| --- | --- | --- | --- | --- | --- | --- |
| 9E10.1_GS_CL-33675 (bispecific antibody, human IgG1, kappa, L234A L235A, DVD-Ig, outer hBEW-9E10.1, inner CL-33675, GS-H10/GS-L10(dR), hu IgG1/k LALA H435A; also called PR-1610561; 9E10.1-GS-33675) heavy: EIQLVQSGSELKKPGASVKVSCKASGYTFTNYGMYWVKQAPGQGLEYMGWIDTETGRPTYADDFKGRFVFSLDTSVSTAYLQISSLKAEDTAVYFCARWSGDTTGIRGPWFAYWGQGTLVTVSSGGGGSGGGGSEVTLRESGPALVKPTQTLTLTCTFSGFSLSTYGMGVGWIRQPPGKALEWLANIWWDDDKYYNPSLKNRLTISKDTSKNQVVLTMTNMDPVDTATYYCARIESSGPKYSFDYWGQGTMVTVSSASTKGPSVFPLAPSSKSTSGGTAALGCLVKDYFPEPVTVSWNSGALTSGVHTFPAVLQSSGLYSLSSVVTVPSSSLGTQTYICNVNHKPSNTKVDKKVEPKSCDKTHTCPPCPAPEAAGGPSVFLFPPKPKDTLMISRTPEVTCVVVDVSHEDPEVKFNWYVDGVEVHNAKTKPREEQYNSTYRVVSVLTVLHQDWLNGKEYKCKVSNKALPAPIEKTISKAKGQPREPQVYTLPPSREEMTKNQVSLTCLVKGFYPSDIAVEWESNGQPENNYKTTPPVLDSDGSFFLYSKLTVDKSRWQQGNVFSCSVMHEALHNAYTQKSLSLSPGK light: DIRMTQSPSSLSASVGDRVTIECLASEDIYSDLAWYQQKPGKSPKLLIYNANGLQNGVPSRFSGSGSGTDYSLTISSLQPEDVATYFCQQYNYFPGTFGQGTKLEIKGGSGGGGSGGEIVLTQSPGTLSLSPGERATLSCRASSGSIWYSFVSWYQQKPGQAPRLLIYADDQRASGIPDRFSGSGSGTDFTLTISRLEPEDFAVYYCQSYGINIDVVFGGGTKVEIKRTVAAPSVFIFPPSDEQLKSGTASVVCLLNNFYPREAKVQWKVDNALQSGNSQESVTEQDSKDSTYSLSSTLTLSKADYEKHKVYACEVTHQGLSSPVTKSFNRGEC | 0.145 nM | 0.034 nM | 0.09 nM | 0.045 nM |  |  |
| hVEGF 4G8.3-SL-hPDGF 9E8.4 [hu IgG1/k] mut(234, 235) H435A (bispecific antibody, DVD-Ig, outer hBDB-4G8.3, inner hBDI-9E8.4, HG-short/LK-long; also called 4G8.3-SL-9E8.4) heavy: EVQLVQSGSELKKPGASVKVSCKASGYTFTNYGMYWVRQAPGQGLEWMGWINTETGKPTYADDFKGRFVFSLDTSVSTAYLQISSLKAEDTAVYYCARTNYYYRSYIFYFDYWGQGTMVTVSSASTKGPEVTLRESGPALVKPTQTLTLTCTFSGFSLSTYGMGVGWIRQPPGKALEWLANIWWDDDKYYNPSLKNRLTISKDTSKNQVVLTMTNMDPVDTATYYCARIESIGTTYSFDYWGQGTMVTVSSASTKGPSVFPLAPSSKSTSGGTAALGCLVKDYFPEPVTVSWNSGALTSGVHTFPAVLQSSGLYSLSSVVTVPSSSLGTQTYICNVNHKPSNTKVDKKVEPKSCDKTHTCPPCPAPEAAGGPSVFLFPPKPKDTLMISRTPEVTCVVVDVSHEDPEVKFNWYVDGVEVHNAKTKPREEQYNSTYRVVSVLTVLHQDWLNGKEYKCKVSNKALPAPIEKTISKAKGQPREPQVYTLPPSREEMTKNQVSLTCLVKGFYPSDIAVEWESNGQPENNYKTTPPVLDSDGSFFLYSKLTVDKSRWQQGNVFSCSVMHEALHNAYTQKSLSLSPGK light: DTVLTQSPATLSLSPGERATLSCRASESVSTHMHWYQQKPGQAPRLLIYGASNLESGVPARFSGSGSGTDFTLTISSLEPEDFAVYFCQQSWNDPFTFGQGTKLEIKRTVAAPSVFIFPPEFVLTQSPGTLSLSPGERATLSCERSSGDIGDSYVSWYQQKPGQAPRLVIYADDQRPSGIPDRFSGSGSGTDFTLTISRLEPEDFAVYYCQSYDINIDIVFGGGTKVEIKGTVAAPSVFIFPPSDEQLKSGTASVVCLLNNFYPREAKVQWKVDNALQSGNSQESVTEQDSKDSTYSLSSTLTLSKADYEKHKVYACEVTHQGLSSPVTKSFNRGEC | 0.36 nM | 0.427 nM | > 5 nM | 0.133 nM |  |  |
| hVEGF 4G8.3-LS-hPDGF 9E8.4 [hu IgG1/k] mut(234, 235) H435A (bispecific antibody, DVD-Ig, outer hBDB-4G8.3, inner hBDI-9E8.4, HG-long/LK-short; also called PR-1575573; 4G8.3-LS-9E8.4) heavy: EVQLVQSGSELKKPGASVKVSCKASGYTFTNYGMYWVRQAPGQGLEWMGWINTETGKPTYADDFKGRFVFSLDTSVSTAYLQISSLKAEDTAVYYCARTNYYYRSYIFYFDYWGQGTMVTVSSASTKGPSVFPLAPEVTLRESGPALVKPTQTLTLTCTFSGFSLSTYGMGVGWIRQPPGKALEWLANIWWDDDKYYNPSLKNRLTISKDTSKNQVVLTMTNMDPVDTATYYCARIESIGTTYSFDYWGQGTMVTVSSASTKGPSVFPLAPSSKSTSGGTAALGCLVKDYFPEPVTVSWNSGALTSGVHTFPAVLQSSGLYSLSSVVTVPSSSLGTQTYICNVNHKPSNTKVDKKVEPKSCDKTHTCPPCPAPEAAGGPSVFLFPPKPKDTLMISRTPEVTCVVVDVSHEDPEVKFNWYVDGVEVHNAKTKPREEQYNSTYRVVSVLTVLHQDWLNGKEYKCKVSNKALPAPIEKTISKAKGQPREPQVYTLPPSREEMTKNQVSLTCLVKGFYPSDIAVEWESNGQPENNYKTTPPVLDSDGSFFLYSKLTVDKSRWQQGNVFSCSVMHEALHNAYTQKSLSLSPGK light: DTVLTQSPATLSLSPGERATLSCRASESVSTHMHWYQQKPGQAPRLLIYGASNLESGVPARFSGSGSGTDFTLTISSLEPEDFAVYFCQQSWNDPFTFGQGTKLEIKRTVAAPEFVLTQSPGTLSLSPGERATLSCERSSGDIGDSYVSWYQQKPGQAPRLVIYADDQRPSGIPDRFSGSGSGTDFTLTISRLEPEDFAVYYCQSYDINIDIVFGGGTKVEIKGTVAAPSVFIFPPSDEQLKSGTASVVCLLNNFYPREAKVQWKVDNALQSGNSQESVTEQDSKDSTYSLSSTLTLSKADYEKHKVYACEVTHQGLSSPVTKSFNRGEC |  |  | > 5 nM | 0.131 nM |  |  |
| hVEGF 4G8.3-GS-hPDGF 9E8.4 [hu IgG1/k] mut(234, 235) H435A (bispecific antibody, DVD-Ig, outer anti-VEGF hBDB-4G8.3, inner anti-PDGF hBDI-9E8.4; also called 4G8.3-GS-9E8.4) heavy: EVQLVQSGSELKKPGASVKVSCKASGYTFTNYGMYWVRQAPGQGLEWMGWINTETGKPTYADDFKGRFVFSLDTSVSTAYLQISSLKAEDTAVYYCARTNYYYRSYIFYFDYWGQGTMVTVSSGGGGSGGGGSEVTLRESGPALVKPTQTLTLTCTFSGFSLSTYGMGVGWIRQPPGKALEWLANIWWDDDKYYNPSLKNRLTISKDTSKNQVVLTMTNMDPVDTATYYCARIESIGTTYSFDYWGQGTMVTVSSASTKGPSVFPLAPSSKSTSGGTAALGCLVKDYFPEPVTVSWNSGALTSGVHTFPAVLQSSGLYSLSSVVTVPSSSLGTQTYICNVNHKPSNTKVDKKVEPKSCDKTHTCPPCPAPEAAGGPSVFLFPPKPKDTLMISRTPEVTCVVVDVSHEDPEVKFNWYVDGVEVHNAKTKPREEQYNSTYRVVSVLTVLHQDWLNGKEYKCKVSNKALPAPIEKTISKAKGQPREPQVYTLPPSREEMTKNQVSLTCLVKGFYPSDIAVEWESNGQPENNYKTTPPVLDSDGSFFLYSKLTVDKSRWQQGNVFSCSVMHEALHNAYTQKSLSLSPGK light: DTVLTQSPATLSLSPGERATLSCRASESVSTHMHWYQQKPGQAPRLLIYGASNLESGVPARFSGSGSGTDFTLTISSLEPEDFAVYFCQQSWNDPFTFGQGTKLEIKRGGSGGGGSGEFVLTQSPGTLSLSPGERATLSCERSSGDIGDSYVSWYQQKPGQAPRLVIYADDQRPSGIPDRFSGSGSGTDFTLTISRLEPEDFAVYYCQSYDINIDIVFGGGTKVEIKGTVAAPSVFIFPPSDEQLKSGTASVVCLLNNFYPREAKVQWKVDNALQSGNSQESVTEQDSKDSTYSLSSTLTLSKADYEKHKVYACEVTHQGLSSPVTKSFNRGEC | 0.341 nM | 0.63 nM | > 5 nM | 0.137 nM |  |  |
| chBDI-1E1 (antibody, human IgG1, V domains shown, also called chimeric BDI-1E1-D5) VH: EVKLQQSGDELVRPGASVKMSCKASGYTFTDYVMHWVKQSPGQGLEWIGTIIPLIDTTSYNQKFKGKATLTADKSSNTAYMELSRLTSEDSAVYYCARTSPYYYSSYDVMDAWGQGASVTVSS VL: NIQLTQSPSLLSASVGDRVTLSCKGSQNINNYLAWYQQKLGEAPKLLIYKTNNLQTGIPSRFSGCGSGTDYTLTISSLHSEDLATYYCYQYDNGYTFGAGTKLELK |  |  |  |  | > 5 nM | 0.417 nM |

Source: patent US20170015742A1 (published 2017)
